Test results taken from the supplement of paper PMC10065799, “High-throughput profiling of sequence recognition by tyrosine kinases and SH2 domains using bacterial peptide display” (eLife, 2023).

How the values were obtained:
Fer (mouse) = assay: phosphorylation enrichment, bacterial display (enrichment ratio); higher = better substrate or ligand; peptides without Tyr show the background
EPHB2 = EPHB2 (UniProt P29323); assay: as above
AncSZ = assay: as above
c-Src = assay: as above
Hck = Hck (UniProt P08631); assay: as above
FGFR1 = FGFR1 (UniProt P11362); assay: as above
Jak2 = Jak2 (UniProt O60674); assay: as above
Fyn = Fyn (UniProt P06241); assay: as above
Fyn, sequence (P06241 whole entry, looked up): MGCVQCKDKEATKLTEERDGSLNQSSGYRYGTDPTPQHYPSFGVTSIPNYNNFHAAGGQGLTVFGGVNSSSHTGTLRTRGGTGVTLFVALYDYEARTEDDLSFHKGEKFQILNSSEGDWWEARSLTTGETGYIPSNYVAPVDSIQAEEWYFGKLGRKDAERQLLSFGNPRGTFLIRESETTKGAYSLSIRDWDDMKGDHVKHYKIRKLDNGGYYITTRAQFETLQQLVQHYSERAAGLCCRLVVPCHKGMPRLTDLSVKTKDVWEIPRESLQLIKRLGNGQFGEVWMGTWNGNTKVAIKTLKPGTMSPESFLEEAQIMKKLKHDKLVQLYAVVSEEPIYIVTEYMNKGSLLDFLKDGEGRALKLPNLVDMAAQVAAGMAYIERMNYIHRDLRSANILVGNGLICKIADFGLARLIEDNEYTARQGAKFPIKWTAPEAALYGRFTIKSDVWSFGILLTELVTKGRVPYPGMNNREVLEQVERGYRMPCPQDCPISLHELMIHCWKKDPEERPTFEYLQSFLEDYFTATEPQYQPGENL

MERTK = MERTK (UniProt Q12866); assay: as above
MERTK, sequence (Q12866 whole entry, looked up): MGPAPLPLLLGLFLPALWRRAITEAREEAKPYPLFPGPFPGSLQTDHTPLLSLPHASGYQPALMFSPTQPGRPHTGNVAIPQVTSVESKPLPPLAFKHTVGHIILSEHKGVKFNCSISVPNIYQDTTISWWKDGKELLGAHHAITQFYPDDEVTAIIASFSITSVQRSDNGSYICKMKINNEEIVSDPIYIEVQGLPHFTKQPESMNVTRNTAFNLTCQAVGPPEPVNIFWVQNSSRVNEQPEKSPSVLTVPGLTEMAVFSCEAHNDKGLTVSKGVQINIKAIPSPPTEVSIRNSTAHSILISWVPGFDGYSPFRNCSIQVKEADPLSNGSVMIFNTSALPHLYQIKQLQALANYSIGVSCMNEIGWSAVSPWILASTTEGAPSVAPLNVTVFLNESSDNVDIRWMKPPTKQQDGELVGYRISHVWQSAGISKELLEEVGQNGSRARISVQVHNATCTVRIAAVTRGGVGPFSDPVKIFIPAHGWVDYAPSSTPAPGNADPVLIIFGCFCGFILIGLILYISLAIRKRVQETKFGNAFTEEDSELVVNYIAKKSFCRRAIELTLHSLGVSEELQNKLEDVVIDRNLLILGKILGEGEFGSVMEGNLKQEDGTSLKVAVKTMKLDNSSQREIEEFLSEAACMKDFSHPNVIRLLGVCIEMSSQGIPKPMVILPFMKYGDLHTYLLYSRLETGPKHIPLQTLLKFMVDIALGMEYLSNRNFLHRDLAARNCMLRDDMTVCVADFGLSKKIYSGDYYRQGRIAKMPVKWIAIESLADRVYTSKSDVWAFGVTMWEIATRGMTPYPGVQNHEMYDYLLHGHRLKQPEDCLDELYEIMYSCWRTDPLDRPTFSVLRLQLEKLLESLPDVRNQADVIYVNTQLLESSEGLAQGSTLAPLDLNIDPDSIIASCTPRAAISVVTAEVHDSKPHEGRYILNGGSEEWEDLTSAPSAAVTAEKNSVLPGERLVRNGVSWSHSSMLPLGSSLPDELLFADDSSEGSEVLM

c-Abl (mouse) = assay: as above
EPHB1 = EPHB1 (UniProt P54762); assay: as above
EPHB1, sequence (P54762 whole entry, looked up): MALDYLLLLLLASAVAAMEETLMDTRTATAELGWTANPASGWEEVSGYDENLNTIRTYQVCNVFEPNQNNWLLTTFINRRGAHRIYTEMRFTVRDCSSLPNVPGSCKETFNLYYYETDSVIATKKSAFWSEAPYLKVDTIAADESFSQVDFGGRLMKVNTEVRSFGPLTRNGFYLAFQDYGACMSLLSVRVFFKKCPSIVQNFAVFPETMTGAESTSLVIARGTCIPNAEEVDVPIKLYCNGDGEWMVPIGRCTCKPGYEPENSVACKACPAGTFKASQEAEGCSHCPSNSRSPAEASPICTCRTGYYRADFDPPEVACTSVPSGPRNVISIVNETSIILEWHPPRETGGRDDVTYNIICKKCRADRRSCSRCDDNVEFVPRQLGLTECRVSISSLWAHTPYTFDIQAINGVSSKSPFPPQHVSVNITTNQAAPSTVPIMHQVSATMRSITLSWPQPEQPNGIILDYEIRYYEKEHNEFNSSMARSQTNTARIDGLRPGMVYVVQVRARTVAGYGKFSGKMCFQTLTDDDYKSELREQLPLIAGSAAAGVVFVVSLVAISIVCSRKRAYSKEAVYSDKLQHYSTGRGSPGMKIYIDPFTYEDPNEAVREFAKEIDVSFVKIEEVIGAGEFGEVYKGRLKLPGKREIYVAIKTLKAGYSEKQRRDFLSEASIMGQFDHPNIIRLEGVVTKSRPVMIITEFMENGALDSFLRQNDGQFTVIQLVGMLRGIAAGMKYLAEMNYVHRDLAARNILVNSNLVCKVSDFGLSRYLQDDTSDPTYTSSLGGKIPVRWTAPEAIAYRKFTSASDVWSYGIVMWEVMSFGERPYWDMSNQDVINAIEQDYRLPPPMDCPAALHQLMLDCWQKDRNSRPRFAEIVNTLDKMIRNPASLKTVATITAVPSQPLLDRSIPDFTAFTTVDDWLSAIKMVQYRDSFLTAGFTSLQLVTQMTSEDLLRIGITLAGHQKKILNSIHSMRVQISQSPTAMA

Fes = Fes (UniProt P07332); assay: as above
FGFR3 = FGFR3 (UniProt P22607); assay: as above
FGFR3, sequence (P22607 whole entry, looked up): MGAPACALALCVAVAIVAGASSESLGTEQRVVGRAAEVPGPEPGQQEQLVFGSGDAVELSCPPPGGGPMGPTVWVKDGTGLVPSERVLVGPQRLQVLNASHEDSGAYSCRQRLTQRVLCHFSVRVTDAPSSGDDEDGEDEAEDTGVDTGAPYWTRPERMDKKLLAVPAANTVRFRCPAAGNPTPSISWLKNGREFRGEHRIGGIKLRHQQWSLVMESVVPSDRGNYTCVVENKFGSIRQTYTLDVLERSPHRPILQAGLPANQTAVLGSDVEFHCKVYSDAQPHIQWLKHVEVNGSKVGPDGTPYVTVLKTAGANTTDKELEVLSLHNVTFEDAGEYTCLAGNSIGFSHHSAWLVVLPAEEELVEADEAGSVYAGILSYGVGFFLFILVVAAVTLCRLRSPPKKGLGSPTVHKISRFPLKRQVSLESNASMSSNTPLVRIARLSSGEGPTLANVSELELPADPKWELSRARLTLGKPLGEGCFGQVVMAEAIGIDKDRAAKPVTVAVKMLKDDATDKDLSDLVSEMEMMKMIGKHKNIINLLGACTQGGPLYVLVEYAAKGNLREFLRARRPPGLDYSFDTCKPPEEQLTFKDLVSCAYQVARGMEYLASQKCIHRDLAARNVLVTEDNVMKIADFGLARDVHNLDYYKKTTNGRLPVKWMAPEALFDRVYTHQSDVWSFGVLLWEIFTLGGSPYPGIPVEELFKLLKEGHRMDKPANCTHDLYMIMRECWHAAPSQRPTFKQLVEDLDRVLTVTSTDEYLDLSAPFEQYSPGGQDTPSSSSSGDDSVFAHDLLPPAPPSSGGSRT

SHP2-C SH2 = assay: SH2 binding enrichment of the phosphorylated peptide, bacterial display (enrichment ratio); higher = better substrate or ligand; peptides without Tyr show the background
c-Src SH2 = assay: as above
Grb2 SH2 = Grb2 SH2 (UniProt P62993); assay: as above
Grb2 SH2, sequence (P62993 whole entry, looked up, the tested form may be a part): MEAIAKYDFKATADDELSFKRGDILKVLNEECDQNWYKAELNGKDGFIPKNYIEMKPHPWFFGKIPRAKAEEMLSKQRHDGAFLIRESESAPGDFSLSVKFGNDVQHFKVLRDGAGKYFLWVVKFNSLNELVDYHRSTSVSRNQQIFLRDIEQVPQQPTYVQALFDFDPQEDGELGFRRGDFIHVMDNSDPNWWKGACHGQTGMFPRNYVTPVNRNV
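Throughout, for SH2 binding enrichment of the phosphorylated peptide, bacterial display: peptide library displayed on the E. coli surface as eCPX fusions, selected cells deep-sequenced, score is each peptide's frequency after selection divided by its frequency in the input.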
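Throughout, for phosphorylation enrichment, bacterial display: 11-residue human phosphosite peptides and single-mutation variants displayed on the E. coli surface, counted by deep sequencing, each peptide's frequency after selection divided by its frequency in the unselected input library; frequency after pTyr selection over input frequency; kinase dosed for 20-30% of maximal phosphorylation in three min.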

EPHB2, sequence (P29323 whole entry, looked up): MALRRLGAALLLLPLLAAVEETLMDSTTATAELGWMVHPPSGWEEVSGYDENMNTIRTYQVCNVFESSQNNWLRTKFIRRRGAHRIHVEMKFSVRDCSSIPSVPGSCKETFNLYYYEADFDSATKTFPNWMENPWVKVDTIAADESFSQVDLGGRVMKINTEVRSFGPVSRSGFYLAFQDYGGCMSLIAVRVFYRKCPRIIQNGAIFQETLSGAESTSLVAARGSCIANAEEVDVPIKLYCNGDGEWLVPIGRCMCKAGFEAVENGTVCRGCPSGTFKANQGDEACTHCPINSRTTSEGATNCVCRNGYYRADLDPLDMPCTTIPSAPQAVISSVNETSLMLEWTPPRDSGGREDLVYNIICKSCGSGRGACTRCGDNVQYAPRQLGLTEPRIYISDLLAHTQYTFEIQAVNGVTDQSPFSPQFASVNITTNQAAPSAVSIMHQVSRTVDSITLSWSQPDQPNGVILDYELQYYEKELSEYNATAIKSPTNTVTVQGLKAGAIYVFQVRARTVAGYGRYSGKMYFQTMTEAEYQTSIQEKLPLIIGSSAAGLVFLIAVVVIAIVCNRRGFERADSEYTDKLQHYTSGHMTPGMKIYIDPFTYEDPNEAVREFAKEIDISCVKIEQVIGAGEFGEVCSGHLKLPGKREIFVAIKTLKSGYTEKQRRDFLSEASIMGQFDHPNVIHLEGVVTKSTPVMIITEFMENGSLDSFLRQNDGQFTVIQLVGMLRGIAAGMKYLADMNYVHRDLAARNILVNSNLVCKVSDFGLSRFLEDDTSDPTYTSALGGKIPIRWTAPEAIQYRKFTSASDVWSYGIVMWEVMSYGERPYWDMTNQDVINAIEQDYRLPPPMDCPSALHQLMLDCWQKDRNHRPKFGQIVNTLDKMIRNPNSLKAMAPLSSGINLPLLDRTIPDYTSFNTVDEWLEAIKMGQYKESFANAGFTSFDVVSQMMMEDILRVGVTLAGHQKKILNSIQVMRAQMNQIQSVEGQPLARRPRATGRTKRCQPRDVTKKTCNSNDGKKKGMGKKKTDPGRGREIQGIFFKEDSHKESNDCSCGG

In the case of WGTPEYDSVVA [MAP1A_Y1883_A1881P], the phosphorylation enrichment (Fer (mouse)) is reported as 2.73, the phosphorylation enrichment (EPHB2) is reported as 0.493 and the phosphorylation enrichment (AncSZ) is reported as 1.42. It also gave a phosphorylation enrichment (c-Src) of 0.59, a phosphorylation enrichment (Hck) of 0.76 and a phosphorylation enrichment (FGFR1) of 0.46. The phosphorylation enrichment (Jak2) was 0.895, the phosphorylation enrichment (Fyn) was 0.566 and the phosphorylation enrichment (MERTK) was 0.359. For the same sequence, the phosphorylation enrichment (c-Abl (mouse)) was 0.723, the phosphorylation enrichment (EPHB1) was 0.495 and the phosphorylation enrichment (Fes) was 1.15. The phosphorylation enrichment (FGFR3) was 0.593, the SH2 binding enrichment (SHP2-C SH2) was 0.612 and the SH2 binding enrichment (c-Src SH2) was 0.864. It also gave an SH2 binding enrichment (Grb2 SH2) of 0.829.

In the case of WHHIFYNELRV [ACTG1_Y91_T89I], the phosphorylation enrichment (Fer (mouse)) is reported as 0.536, the phosphorylation enrichment (EPHB2) is reported as 0.725 and the phosphorylation enrichment (AncSZ) is reported as 1.14. It also gave a phosphorylation enrichment (c-Src) of 0.407, a phosphorylation enrichment (Hck) of 0.569 and a phosphorylation enrichment (FGFR1) of 0.527. The phosphorylation enrichment (Jak2) was 1.13, the phosphorylation enrichment (Fyn) was 0.388 and the phosphorylation enrichment (MERTK) was 0.444. For the same sequence, the phosphorylation enrichment (c-Abl (mouse)) was 0.805, the phosphorylation enrichment (EPHB1) was 0.663 and the phosphorylation enrichment (Fes) was 1.33. It also gave a phosphorylation enrichment (FGFR3) of 0.911, an SH2 binding enrichment (SHP2-C SH2) of 0.638 and an SH2 binding enrichment (c-Src SH2) of 0.512. For the same sequence, the SH2 binding enrichment (Grb2 SH2) was 0.701.

Sequence WHYTFYNELRV [ACTC1_Y93_H90Y] has a phosphorylation enrichment (Fer (mouse)) of 0.651, a phosphorylation enrichment (EPHB2) of 0.678 and a phosphorylation enrichment (AncSZ) of 1.39. For the same sequence, the phosphorylation enrichment (c-Src) was 0.619, the phosphorylation enrichment (Hck) was 0.67 and the phosphorylation enrichment (FGFR1) was 0.686. It also gave a phosphorylation enrichment (Jak2) of 1.27, a phosphorylation enrichment (Fyn) of 0.461 and a phosphorylation enrichment (MERTK) of 0.869. For the same sequence, the phosphorylation enrichment (c-Abl (mouse)) was 0.979, the phosphorylation enrichment (EPHB1) was 1.31 and the phosphorylation enrichment (Fes) was 1.42. The phosphorylation enrichment (FGFR3) was 1.03, the SH2 binding enrichment (SHP2-C SH2) was 0.779 and the SH2 binding enrichment (c-Src SH2) was 0.572. It also gave an SH2 binding enrichment (Grb2 SH2) of 0.992.

In the case of WRPFGYPCRRR [BCS1L_Y181_R183C], the phosphorylation enrichment (Fer (mouse)) is reported as 0.458, the phosphorylation enrichment (EPHB2) is reported as 0.435 and the phosphorylation enrichment (AncSZ) is reported as 0.622. It also gave a phosphorylation enrichment (c-Src) of 0.517, a phosphorylation enrichment (Hck) of 0.457 and a phosphorylation enrichment (FGFR1) of 0.496. It also gave a phosphorylation enrichment (Jak2) of 0.394, a phosphorylation enrichment (Fyn) of 0.442 and a phosphorylation enrichment (MERTK) of 0.509. It also gave a phosphorylation enrichment (c-Abl (mouse)) of 0.544, a phosphorylation enrichment (EPHB1) of 0.422 and a phosphorylation enrichment (Fes) of 0.643. For the same sequence, the phosphorylation enrichment (FGFR3) was 0.462, the SH2 binding enrichment (SHP2-C SH2) was 0.488 and the SH2 binding enrichment (c-Src SH2) was 0.435. The SH2 binding enrichment (Grb2 SH2) was 0.746.

WRVISYHVVVW [ATP13A2_Y50_G49S] gave a phosphorylation enrichment (Fer (mouse)) of 0.547, a phosphorylation enrichment (EPHB2) of 0.61 and a phosphorylation enrichment (AncSZ) of 1.2. For the same sequence, the phosphorylation enrichment (c-Src) was 0.63, the phosphorylation enrichment (Hck) was 0.544 and the phosphorylation enrichment (FGFR1) was 0.554. It also gave a phosphorylation enrichment (Jak2) of 1.26, a phosphorylation enrichment (Fyn) of 0.453 and a phosphorylation enrichment (MERTK) of 0.434. For the same sequence, the phosphorylation enrichment (c-Abl (mouse)) was 1.03, the phosphorylation enrichment (EPHB1) was 0.582 and the phosphorylation enrichment (Fes) was 1.47. The phosphorylation enrichment (FGFR3) was 0.826, the SH2 binding enrichment (SHP2-C SH2) was 0.994 and the SH2 binding enrichment (c-Src SH2) was 0.619. It also gave an SH2 binding enrichment (Grb2 SH2) of 1.08.

WVFNHYRCIIW [BRCA2_Y2624_W2626C_YF] showed a phosphorylation enrichment (Fer (mouse)) of 0.589, a phosphorylation enrichment (EPHB2) of 0.644 and a phosphorylation enrichment (AncSZ) of 1.28. It also gave a phosphorylation enrichment (c-Src) of 0.497, a phosphorylation enrichment (Hck) of 0.574 and a phosphorylation enrichment (FGFR1) of 0.498. The phosphorylation enrichment (Jak2) was 1.41, the phosphorylation enrichment (Fyn) was 0.482 and the phosphorylation enrichment (MERTK) was 0.538. It also gave a phosphorylation enrichment (c-Abl (mouse)) of 1.04, a phosphorylation enrichment (EPHB1) of 0.885 and a phosphorylation enrichment (Fes) of 1.67. It also gave a phosphorylation enrichment (FGFR3) of 0.956, an SH2 binding enrichment (SHP2-C SH2) of 0.755 and an SH2 binding enrichment (c-Src SH2) of 0.588. The SH2 binding enrichment (Grb2 SH2) was 0.82.
